Measured values published in EP1832653A1 (INSTITUTE OF VIROLOGY, dated 2007).

B1: oligopeptide … (aa 75-98) [SEQ ID NO: 106] (peptide)
peptide: EDPPGEEDLPGEEDLPGEEDLPEV
notes: Synthetic; cysteine added onto the C-end; C-terminal acid

Key:
[1] = target: B1; assay: phage display panning, 5 cycles, on immobilized peptide SEQ ID NO: 106
[2] = target: T1, monoclonal antibody M75 (MAb M75), secreted from the hybridoma VU-M75, ATCC HB 11128; assay: competition ELISA: peptide in solution against immobilized GST-MN for M75
T1 construct: also called MAb 75

Binder | binding result [1] | IC50 [2] [ng/mL]
KKMKRRK (Residues 2-8 follow from 'after adding alanine on both sides') [phage-displayed heptapeptide of SEQ ID NO: 137 (without the added alanines), Ph.D.-7 library] | binds | 
ITFNAQY [phage-displayed heptapeptide of SEQ ID NO: 138 (without the added alanines), Ph.D.-7 library] | binds | 
B1 |  | 1
SASAPVS [phage-displayed heptapeptide of SEQ ID NO: 139 (without the added alanines), Ph.D.-7 library] | binds | 
